Data taken from the supplement of paper PMC11865577.

System: TO-3-N3 (biotin conjugate)
Assay: pull-down binding Z-score (relative to library population); higher = stronger binding
Details: RNA library: Library-2
Summary of the method: (§1)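 Biotin-conjugated small molecule (100 pmol) on streptavidin beads was incubated with 1 μg of heat-folded Cy5- or Cy3-end-labelled RNA library in phosphate/NaCl/KCl buffer at 25 °C for 60 min. Following three washes, RNA was eluted with hot SDS and hybridised at 55.5 °C for 20 h to a DNA barcode microarray. The binding value is a Z-score computed from the library mean and standard deviation, after subtraction of beads without compound and averaging of barcoded replicate probes with the highest and lowest excluded.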

Sequence	pull-down binding Z-score
GUGAGGCAGGGAGCUGAGCUCAC [hsa-mir-3622a]	0.401
GUGAGGUAUUUUAGUAACAUCAC [hsa-mir-125b-2]	-0.818
GUGAGUGUCUCUUGUCGC [hsa-mir-1281]	0.334
GUGAGUUAGAAAAGCUCAAUUCAC [hsa-mir-4457]	-0.654
GUGAUAGGAUUUAUCAC [hsa-mir-4999]	-0.154
GUGAUAGUAAUAAAGUCUCAU [hsa-mir-135a-2]	-0.314
GUGAUGUGAGGAGCAACAGGCACCCUCCU [hsa-mir-6792]	-0.0611
GUGAUUACAUUAAAACUUAAAAUUUCAC [hsa-mir-4719]	-0.0289
GUGAUUGUCUUCCUCACUCAAUCAG [hsa-mir-4704]	0.145
GUGCACUUCAUUUACGAUGUAG [hsa-mir-1193]	0.515
GUGCAGCUUGUACCUGCAC [hsa-mir-1293]	-0.154
GUGCUGGCAGUGGCCACGUAA [hsa-mir-4276]	-0.0231
GUGGAACUGACCUGCCCCCUUUCUC [hsa-mir-6817]	0.152
GUGGAAUGCAAAGUCCCAC [hsa-mir-5698]	-0.264
GUGGACAGAGGCAAAACUCUAACUUC [hsa-mir-6078]	-0.31
GUGGAGCCAAAAUUAGAAGGGCCAAAAUUCUACCUGGCCCACUACCACAG [hsa-mir-3978]	-0.3
GUGGAGGGUGGUGCCGCCGGGGCCGGGCGCUGUUUCAGCUCGCUUCUCCCCCCAC [hsa-mir-1224]	2.06
GUGGAGGUAGGCGAGAGUAAUAUAAUUUCUCCAGGAGAACAUCUGAGAGGGGAAGUUGCUUUCCUGCCCUGGCCCUUUCAC [hsa-mir-6076]	0.431
GUGGAGUCGGGUCAGACUUCAA [hsa-mir-378c]	-0.461

Sequence	pull-down binding Z-score
GUGGCCUUGGACAAGCCUCUUGGUUAC [hsa-mir-4672]	-0.457
GUGGCUAAUCAGCUGAUGGUGCCAC [hsa-mir-4715]	-0.0716
GUGGCUUCAACCAAGUUCAAAGUCAC [hsa-mir-3186]	-0.304
GUGGCUUGUGGCUGAGUGUCACGCUGC [hsa-mir-6068]	-0.567
GUGGGUCAAGUUUAGAGAUGCACCAAC [hsa-mir-490]	1.32
GUGGGUUGUGAGGACUGAGGCCAGACCCAC [hsa-mir-181d]	-0.504
GUGGUGGGCACUGCUGGGGUGGGCACAGCAGCCAUGCAGAGCGGGCAUUUGACCCCGUGCCACCCUUUUCCCCAG [hsa-mir-1227]	2.64
GUGGUUUCAGGGCAGUGAUGUUGCCCCUCGGAAGAUAACUAU [hsa-let-7b]	-0.324
GUGUACAGGGAGGAGACUGUACGUGAGAGAUAGUCAGAUCCGCAUGUUAGAGCAGAGUCUCCUUCGUGUACAG [hsa-mir-4441]	-0.779
GUGUACCUCAUGUGUGUACAC [hsa-mir-5692a-2_5692a-1]	-0.584
GUGUAGAGGCGGAGCACAG [hsa-mir-1471]	0.151
GUGUAGGGGUGGCUACAC [hsa-mir-4717]	0.385
GUGUAUGGGCUGAGCCUUGC [hsa-mir-6805]	-0.021
GUGUCCUGAAAUUCACAGGACUG [hsa-mir-4700]	0.856
GUGUCCUUUCUUCUGAGAGCUGGACAC [hsa-mir-6500]	-0.375
GUGUCGCCCCACGAGGGGGACUGU [hsa-mir-4322]	-0.00462
GUGUCUGGAGACGCCAGGCAGC [hsa-mir-4323]	-0.154
GUGUCUGGCCCCAGCAGCCCAGACU [hsa-mir-6751]	0.258
GUGUGGAGAGAGCACUGAGCCUGCCCACC [hsa-mir-6849]	-0.134

Sequence	pull-down binding Z-score
GUGUGUGGCGUGGGUGCUGCGGGGCCGUCAGGGUGCCUGCGGGACGCUCAC [hsa-mir-6765]	0.665
GUGUGUUACCUAGAAAUAGCACU [hsa-mir-378a]	-0.283
GUGUUCACACAUAAUGUGUACACCAUGUGUGUACAC [hsa-mir-5692b]	0.192
GUGUUGGGUAUAAGUAACA [hsa-mir-1270]	-0.205
GUGUUUAUUUUUUACUAAAUAG [hsa-mir-4766]	-0.515
GUGUUUGUGACAUAAUUUGU [hsa-mir-325]	0.174
GUGUUUUCUCCUUUAGAGAGAGCUG [hsa-mir-4299]	-0.542
GUUACUAAUCUAACUAAUUGUAAC [hsa-mir-582]	0.0863
GUUACUGUGGGAACUGGAGGUAAC [hsa-mir-132]	0.839
GUUAGACCUGGCCCUCUGUCUAAU [hsa-mir-429]	0.355
GUUAGUUGUGGACACAUACUAAC [hsa-mir-3912]	-0.764
GUUCAGAGUCUGUUUUUGUCUAGC [hsa-mir-29c]	-0.508
GUUCCUGUGAUUUUUC [hsa-mir-198]	-0.267
GUUCGCUUAAUUUAUGACGAAUC [hsa-mir-487a]	-0.221
GUUCGGGGGUUCCGACGGCGAC [hsa-mir-6790]	2.61
GUUGAAAAAUAUCUAUGUAUUAGUAAAC [hsa-mir-649]	-0.0443
GUUGACUGUUGAAUCUCAUGGCAAC [hsa-mir-21]	-0.114
GUUGCAUGUUGUCACGGCCUCAAUGCAAU [hsa-mir-32]	-0.164

System: TO-N3-2 (biotin conjugate)
Assay: as above
Details: RNA library: Library-2
Summary of the method: as §1

Sequence	pull-down binding Z-score
GUCCUGACUGCGUGCCAGGGGC [hsa-mir-3650]	0.488
GUCCUGCCCUCACUGGGAACCCCCUUCCCUCUGGGUACCAG [hsa-mir-1324]	1.39
GUCUCGGUCCUUUGGAACGUGGC [hsa-mir-4470]	-0.476
GUCUGCCAAAACCUUGGCAGAC [hsa-mir-3913-1]	-1.22
GUCUGCCAAGGUUUUGGCAGAC [hsa-mir-3913-2]	-1.2
GUCUGGCAUUGUCUGAUAUAC [hsa-mir-1294]	0.408
GUCUGUCACUGGGGAAGUC [hsa-mir-4682]	0.993
GUCUGUUUUCUUCAUGGUUUUCUGAC [hsa-mir-6759]	-0.557
GUCUUGAUCCCCCACCCCAAGAC [hsa-mir-642b]	0.091
GUCUUGGGGUGGGGGAUCAAGAC [hsa-mir-642a]	1.89
GUGAACAUUGCAU [hsa-mir-4301]	-0.237
GUGAACCUGAAUUUGCCUUGGGUUUCCU [hsa-mir-670]	1.76
GUGACGCCGCGAAGUGCAC [hsa-mir-3147]	0.997
GUGAGAGAUGCUUCUAGAUCCAGGAGGCAGACCUCAA [hsa-mir-4325]	0.879
GUGAGAUGUUCAUACAAUCCCUCAC [hsa-mir-216a]	-0.17
GUGAGCGCAGGUCUUUGGCAC [hsa-mir-4450]	0.729
GUGAGCUCAGCUCCCUGCCUCAC [hsa-mir-3622b]	0.811
GUGAGCUGGAAAUGGGGUGCUAC [hsa-mir-598]	0.962
GUGAGGCAGGGAGCUGAGCUCAC [hsa-mir-3622a]	1.06

Sequence	pull-down binding Z-score
GUGAGGUAUUUUAGUAACAUCAC [hsa-mir-125b-2]	-0.794
GUGAGUGUCUCUUGUCGC [hsa-mir-1281]	0.25
GUGAGUUAGAAAAGCUCAAUUCAC [hsa-mir-4457]	-0.405
GUGAUAGGAUUUAUCAC [hsa-mir-4999]	-0.819
GUGAUAGUAAUAAAGUCUCAU [hsa-mir-135a-2]	-0.0282
GUGAUGUGAGGAGCAACAGGCACCCUCCU [hsa-mir-6792]	0.846
GUGAUUACAUUAAAACUUAAAAUUUCAC [hsa-mir-4719]	-0.663
GUGAUUGUCUUCCUCACUCAAUCAG [hsa-mir-4704]	-0.0609
GUGCACUUCAUUUACGAUGUAG [hsa-mir-1193]	0.478
GUGCAGCUUGUACCUGCAC [hsa-mir-1293]	-0.592
GUGCUGGCAGUGGCCACGUAA [hsa-mir-4276]	1.46
GUGGAACUGACCUGCCCCCUUUCUC [hsa-mir-6817]	0.882
GUGGAAUGCAAAGUCCCAC [hsa-mir-5698]	-0.551
GUGGACAGAGGCAAAACUCUAACUUC [hsa-mir-6078]	0.491
GUGGAGCCAAAAUUAGAAGGGCCAAAAUUCUACCUGGCCCACUACCACAG [hsa-mir-3978]	0.705
GUGGAGGGUGGUGCCGCCGGGGCCGGGCGCUGUUUCAGCUCGCUUCUCCCCCCAC [hsa-mir-1224]	2.36
GUGGAGGUAGGCGAGAGUAAUAUAAUUUCUCCAGGAGAACAUCUGAGAGGGGAAGUUGCUUUCCUGCCCUGGCCCUUUCAC [hsa-mir-6076]	1.37
GUGGAGUCGGGUCAGACUUCAA [hsa-mir-378c]	0.384
